In patent publication EP4707292A2:

How the values were obtained:
[1] = target: Adeno-associated virus 9 (AAV9) virion (adeno-associated virus 9); experiment: co-IP with ADK9/LC-MS/MS, AAV9 + human serum vs control
[2] = target: Adeno-associated virus 8 (AAV8) virion (adeno-associated virus 8); experiment: co-IP/LC-MS/MS, AAV8 + human serum vs PBS control
[3] = target: Haploid virus AAV2/8 1:3 (adeno-associated virus 2; adeno-associated virus 8); experiment: cell-based or functional assay
[4] = target: Haploid virus AAV2/8 3:1 (adeno-associated virus 2; adeno-associated virus 8); experiment: cell-based or functional assay
[5] = target: Adeno-associated virus 8 (AAV8) virion (adeno-associated virus 8); experiment: cell-based or functional assay
[6] = target: Haploid virus AAV2/8 1:1 (adeno-associated virus 2; adeno-associated virus 8); experiment: cell-based or functional assay
[7] = target: Adeno-associated virus 2 (AAV2) virion (adeno-associated virus 2); experiment: cell-based or functional assay

Sequence of Fibronectin, P02751 32-2477 (P02751 32-2477 limits assumed): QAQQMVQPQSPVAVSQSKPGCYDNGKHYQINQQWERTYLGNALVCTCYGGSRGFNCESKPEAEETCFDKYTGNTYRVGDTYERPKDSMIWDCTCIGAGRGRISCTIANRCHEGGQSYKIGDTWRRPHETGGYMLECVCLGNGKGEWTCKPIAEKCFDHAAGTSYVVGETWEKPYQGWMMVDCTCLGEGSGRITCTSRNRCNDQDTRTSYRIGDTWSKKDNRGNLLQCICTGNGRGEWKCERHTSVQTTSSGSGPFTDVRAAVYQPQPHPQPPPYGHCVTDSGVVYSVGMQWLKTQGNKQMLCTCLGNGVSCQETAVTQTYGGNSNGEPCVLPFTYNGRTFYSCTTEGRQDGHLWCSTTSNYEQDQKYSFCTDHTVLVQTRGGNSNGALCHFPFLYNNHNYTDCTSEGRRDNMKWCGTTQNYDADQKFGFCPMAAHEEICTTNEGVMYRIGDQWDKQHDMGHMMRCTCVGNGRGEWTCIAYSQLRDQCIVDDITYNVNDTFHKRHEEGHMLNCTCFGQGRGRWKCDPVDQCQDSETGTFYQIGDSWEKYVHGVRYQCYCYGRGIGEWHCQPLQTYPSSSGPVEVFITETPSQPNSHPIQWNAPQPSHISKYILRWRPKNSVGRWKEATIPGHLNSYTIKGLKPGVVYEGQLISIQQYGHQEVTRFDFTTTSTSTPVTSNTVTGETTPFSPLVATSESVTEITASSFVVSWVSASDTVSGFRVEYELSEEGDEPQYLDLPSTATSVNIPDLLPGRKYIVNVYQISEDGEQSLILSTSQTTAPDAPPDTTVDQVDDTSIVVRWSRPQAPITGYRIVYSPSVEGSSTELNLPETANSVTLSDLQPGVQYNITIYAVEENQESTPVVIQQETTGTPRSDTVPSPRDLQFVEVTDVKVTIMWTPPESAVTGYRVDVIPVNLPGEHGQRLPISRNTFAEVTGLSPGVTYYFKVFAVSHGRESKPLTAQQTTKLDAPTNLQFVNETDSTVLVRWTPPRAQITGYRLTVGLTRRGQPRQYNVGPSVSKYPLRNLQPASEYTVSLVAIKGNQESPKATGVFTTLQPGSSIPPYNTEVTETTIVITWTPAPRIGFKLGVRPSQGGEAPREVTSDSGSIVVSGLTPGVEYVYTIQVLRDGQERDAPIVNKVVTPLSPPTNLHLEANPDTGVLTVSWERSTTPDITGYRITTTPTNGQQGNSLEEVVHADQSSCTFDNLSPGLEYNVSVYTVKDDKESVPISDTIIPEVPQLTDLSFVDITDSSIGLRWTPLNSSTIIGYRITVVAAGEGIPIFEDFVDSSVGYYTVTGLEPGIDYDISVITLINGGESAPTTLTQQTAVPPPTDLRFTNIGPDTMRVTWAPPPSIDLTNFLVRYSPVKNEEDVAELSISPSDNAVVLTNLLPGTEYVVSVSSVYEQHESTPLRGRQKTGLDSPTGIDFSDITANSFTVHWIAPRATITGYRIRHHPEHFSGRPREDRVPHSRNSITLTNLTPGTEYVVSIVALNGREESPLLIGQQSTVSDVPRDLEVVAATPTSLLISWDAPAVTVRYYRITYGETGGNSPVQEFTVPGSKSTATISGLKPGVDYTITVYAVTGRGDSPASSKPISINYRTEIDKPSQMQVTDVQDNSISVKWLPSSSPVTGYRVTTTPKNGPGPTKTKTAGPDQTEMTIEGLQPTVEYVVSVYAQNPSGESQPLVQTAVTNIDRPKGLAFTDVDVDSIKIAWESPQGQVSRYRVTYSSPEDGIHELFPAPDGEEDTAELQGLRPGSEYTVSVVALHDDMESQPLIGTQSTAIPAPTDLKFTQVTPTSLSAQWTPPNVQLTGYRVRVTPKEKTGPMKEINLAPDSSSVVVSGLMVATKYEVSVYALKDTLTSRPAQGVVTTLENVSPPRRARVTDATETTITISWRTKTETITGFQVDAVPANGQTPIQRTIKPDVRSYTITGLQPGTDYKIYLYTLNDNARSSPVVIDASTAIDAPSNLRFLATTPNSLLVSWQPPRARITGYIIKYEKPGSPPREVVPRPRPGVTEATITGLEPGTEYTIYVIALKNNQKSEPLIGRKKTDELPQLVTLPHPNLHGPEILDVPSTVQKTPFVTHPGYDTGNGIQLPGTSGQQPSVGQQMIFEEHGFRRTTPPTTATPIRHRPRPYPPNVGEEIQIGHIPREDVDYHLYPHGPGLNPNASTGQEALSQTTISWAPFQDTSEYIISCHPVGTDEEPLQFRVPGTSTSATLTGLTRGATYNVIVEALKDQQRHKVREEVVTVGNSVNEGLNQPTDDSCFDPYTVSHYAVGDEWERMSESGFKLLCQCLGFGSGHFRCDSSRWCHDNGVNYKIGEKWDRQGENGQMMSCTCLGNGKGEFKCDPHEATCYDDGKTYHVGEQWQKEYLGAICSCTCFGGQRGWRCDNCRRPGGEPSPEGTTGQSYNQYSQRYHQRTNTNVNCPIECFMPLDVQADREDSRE
Sequence of Ig kappa chain V-I region EU (P01602 23-117 limits assumed): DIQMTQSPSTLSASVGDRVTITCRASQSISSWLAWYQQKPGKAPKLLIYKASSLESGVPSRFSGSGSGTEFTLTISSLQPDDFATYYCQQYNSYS

| Substance | fold change [1] [fold] | fold change [2] [fold] | further results |
| --- | --- | --- | --- |
| Alpha-2-HS-glycoprotein (from UniProt C9JV77 19-301; C9JV77 342-368) | 3.17 | 3.17 |  |
| Complement C4-A (from UniProt P0C0L4 20-1744) | 2.42 | 2.42 |  |
| Fibrinogen gamma chain (Fragment) (from UniProt C9JU00 1-123) | 0.417 | 0.417 | Fold increase [1]: 8.36 fold |
| Fibronectin, P02751 32-2477 | 2.5 | 2.5 | Fold increase [1]: 5.41 fold |
| Ig kappa chain V-I region EU (from UniProt P01602 23-117) | 3.83 | 3.83 |  |
| Ig kappa chain V-III region SIE (from UniProt P01619 21-116) | 2.79 | 2.79 |  |
| Ig lambda-2 chain C regions (from UniProt P0DOY2 1-106) | 1.5 | 1.5 |  |
| Monoclonal antibody A20 |  |  | Neutralization antibody titer (reciprocal dilution) [3]: < 2; Neutralization antibody titer (reciprocal dilution) [4]: 2048; Neutralization antibody titer (reciprocal dilution) [5]: < 2; Neutralization antibody titer (reciprocal dilution) [6]: 32; A20 neutralizing antibody titer (the dilution at first time inhibits AAV transduction over 50%) (reciprocal dilution) [7]: 640; Neutralization antibody titer (reciprocal dilution) [7]: 512 |
| Monoclonal antibody ADK8 |  |  | Neutralization antibody titer (reciprocal dilution) [3]: 1024; Neutralization antibody titer (reciprocal dilution) [4]: 512; Neutralization antibody titer (reciprocal dilution) [5]: 1024; Neutralization antibody titer (reciprocal dilution) [6]: 512; Neutralization antibody titer (reciprocal dilution) [7]: < 2 |
| Platelet factor 4 variant (from UniProt P10720 31-104) | 0.938 | 0.938 | Fold increase [1]: 1.47 fold |
| Transthyretin (from UniProt P02766 21-147) | 5.55 | 5.55 |  |
